Measurements taken from patent US11686724B2, “Compositions comprising gamma 9 delta 2 T-cell receptors and methods of use thereof to treat cancer” (Gadeta B.V., priority 2012, dated 2023).

Legend:
Daudi [1] = test: 51Cr-release assay of γ9δ2TCR-transduced T-cells against Daudi; assay type: cell-based; details: FIG. 1A, E:T 3:1, 5 h
Protocol: (§1) 51Chromium-release assay for cell-mediated cytotoxicity was previously described. Target cells were labeled overnight with 100 μCu 51Cr (150 μCu for primary cells) and incubated for 5 h with transduced T-cells in five effector-to-target ratios (E:T) between 30:1 and 0.3:1. Fold change was calculated when compared to reactivity of engineered T-cells expressing unmutated γ9δ2TCR. IFN-γ ELISpot was performed using anti-hulFN-γmAb1-D1K (I) and mAb7-B6-1 (II) (Mabtech-Hamburg, Germany) following the manufacturer's recommended procedure. Target and effector cells (E:T 3:1) were incubated for 24 h in the presence of pamidronate (Calbiochem, Germany) where indicated. IFNγ ELISA was performed using ELISA-ready-go! Kit (eBioscience) following manufacturer's instructions. Effector and target cells (E:T 1:1) were incubated for 24 h in the presence of pamidronate as indicated. Where specified, fold change was calculated when compared to reactivity of engineered T-cells expressing unmutated γ9δ2TCR.
^51Chromium-release assay for cell-mediated cytotoxicity was previously described (Kuball et al., 2004). […] After 4-6 h ^51Cr-release was measured in the supernatant. Fold change was calculated based on ^51Cr-release of γ9-G115wt/69-G115wt transduced T-cells normalized to 1; for side by side experiments based on γ9-3wt/δ9-3wt, γ9-5wt/δ9-5wt or γ9-G115wt/69-G115wt normalized to 1.

Daudi [2] = test: IFNγ ELISA of γ9δ2TCR-transduced T-cells against Daudi in the presence of pamidronate; assay type: cell-based; design: IFNγ secretion (max.): unit not given here; details: CD4+ transduced T-cells, pamidronate titration; for IFNγ secretion (max.): FIG. 1B
Protocol: as §1
IFN-γELISA was performed using ELISA-ready-go! Kit (eBioscience) following manufacturers' instructions. Effector and target cells (E:T 1:1) were incubated for 24 h in the presence of pamidronate as indicated. Where specified, fold change was calculated based on IFN-γ secretion γ9-G115wt/6δ-G115wt transduced T-cells normalized to 1; for the side by side experiments based on γ9-3wt/δ9-3wt, γ9-5wt/69-5wt or γ9-G115wt/δ9-G115wt normalized to 1.

[3] = Allo-reactivity of γ9δ2TCR-transduced T-cells; assay type: cell-based
RPMI8226/S-luciferase = RPMI8226/S-luciferase xenograft in Rag2−/−γc−/− mice, adoptive transfer of engineered T-cells; assay type: in vivo; details: day 35, n=7, one i.v. injection of 10^7 T-cells
Protocol: (§2) To induce tumour xenografts, sublethal total body irradiated (2 Gy), 11-17 weeks old RAG-2−/−/yc−/−-BALB/C mice were injected i.v. with 0.5×10^6 Daudi-Luc cells (a kind gift from Genmab Utrecht, The Netherlands) or 5×10^6 RPM I8226/S-Luc cells (Anton Martens, Utrecht, The Netherlands) together with 10^7 γ9δ2TCR+ transduced T-cells. The RAG−2^−/^−yc^−/−-BALB/C mice were originally obtained from AMCAS b.v. (Amsterdam, the Netherlands). Mice were bred and housed in the specific pathogen-free (SPF) breeding unit of the Central Animal Facility of the University of Utrecht. All animal experiments were conducted according to Institutional Guidelines after acquiring permission from the local Ethical Committee for Animal Experimentation, and in accordance with current Dutch laws on Animal Experimentation. All mice developed tumours, mainly growing in the bone marrow visualized in vivo once a week by Biospace bioluminescent imaging. […] Bioluminescence images were acquired using a third generation cooled GaAs intensified charge-coupled device camera, controlled by the Photo Vision software and analyzed with M^3Vision software (all from Photon Imager; Biospace Laboratory). […] Bioluminescence images were acquired and analyzed with M3Vision software (Photon Imager, Biospace Laboratory). […]

Daudi-luciferase = Daudi-luciferase xenograft in Rag2−/−γc−/− mice, adoptive transfer of engineered T-cells; assay type: in vivo
Protocol: as §2

[4] = test system: healthy CD34+ progenitor cells; test: IFNγ ELISpot against healthy CD34+ progenitor cells; assay type: cell-based; details: FIG. 5C
Protocol: as §1
Mabtech (Hamburg, Germany) following manufactures' recommended procedure (Besold et al., 2007). In all assays target and effector cells (E:T 3:1) were incubated for 24 h in the presence of pamidronate (Calbiochem, Germany) where indicated. […]

Molecule	reduced ability to lyse tumour cells vs control γ9-G115wt/δ2-G115wt (Daudi [1]) [%]	IFNγ secretion (max.) (Daudi [2])	allo-reactivity compared to mock-transduced cells [3]	tumour outgrowth by bioluminescence imaging (RPMI8226/S-luciferase) [counts/min]	tumour outgrowth by bioluminescence imaging (Daudi-luciferase; Daudi, day 42, n=4, one i.v. injection of 10^7 T-cells) [counts/min]	protection against tumour growth (BLI) (Daudi-luciferase; one T-cell infusion, FIGS. 6A and 6B (Daudi and RPMI8226/S))	recognition of CD34+ progenitor cells [4]	IFNγ production (max.) (Daudi [2]; FIG. 1D) [pg/mL]
γ9-cl3/δ2-cl3: wildtype γ9δ2TCR of T-cell clone 3 (SEQ ID 8 and 10) (protein, listed as Homo sapiens) chain 1: MVSLLHASTLAVLGALCVYGAGHLEQPQISSTKTLSKTARLECVVSGITISATSVYWYRERPGEVIQFLVSISYDGTVRKESGIPSGKFEVDRIPETSTSTLTIHNVEKQDIATYYCALWEEELGKKIKVFGPGTKLIITDKQLDADVSPKPTIFLPSIAETKLQKAGTYLCLLEKFFPDVIKIHWEEKKSNTILGSQEGNTMKTNDTYMKFSWLTVPEKSLDKEHRCIVRHENNKNGVDQEIIFPPIKTDVITMDPKDNCSKDANDTLLLQLTNTSAYYMYLLLLLKSVVYFAIITCCLLRRTAFCCNGEKS chain 2: MERISSLIHLSLFWAGVMSAIELVPEHQTVPVSIGVPATLRCSMKGEAIGNYYINWYRKTQGNTMTFIYREKDIYGPGFKDNFQGDIDIAKNLAVLKILAPSERDEGSYYCACDLLGYTDKLIFGKGTRVTVEPRSQPHTKPSVFVMKNGTNVACLVKEFYPKDIRINLVSSKKITEFDPAIVISPSGKYNAVKLGKYEDSNSVTCSVQHDNKTVHSTDFEVKTDSTDHVKPKETENTKQPSKSCHKPKAIVHTEKVNMMSLTVLGLRMLFAKTVAVNFLLTAKLFFL	50	600						
γ9-G115/δ2-G115: reference γ9δ2TCR of clone G115, γ9 chain SEQ ID NO.1 and δ2 chain SEQ ID NO.2, control (protein, listed as Homo sapiens) chain 1: MVSLLHASTLAVLGALCVYGAGHLEQPQISSTKTLSKTARLECVVSGITISATSVYWYRERPGEVIQFLVSISYDGTVRKESGIPSGKFEVDRIPETSTSTLTIHNVEKQDIATYYCALWEAQQELGKKIKVFGPGTKLIITDKQLDADVSPKPTIFLPSIAETKLQKAGTYLCLLEKFFPDVIKIHWEEKKSNTILGSQEGNTMKTNDTYMKFSWLTVPEKSLDKEHRCIVRHENNKNGVDQEIIFPPIKTDVITMDPKDNCSKDANDTLLLQLTNTSAYYMYLLLLLKSVVYFAIITCCLLRRTAFCCNGEKS chain 2: MERISSLIHLSLFWAGVMSAIELVPEHQTVPVSIGVPATLRCSMKGEAIGNYYINWYRKTQGNTMTFIYREKDIYGPGFKDNFQGDIDIAKNLAVLKILAPSERDEGSYYCACDTLGMGGEYTDKLIFGKGTRVTVEPRSQPHTKPSVFVMKNGTNVACLVKEFYPKDIRINLVSSKKITEFDPAIVISPSGKYNAVKLGKYEDSNSVTCSVQHDNKTVHSTDFEVKTDSTDHVKPKETENTKQPSKSCHKPKAIVHTEKVNMMSLTVLGLRMLFAKTVAVNFLLTAKLFFL		800	nearly abolished	210.000	180.000	loss of protection	not recognized	800
